The target of experiment [1] is chimeric hexon of Ad5:H6.1 (Ad5 vector, hexon residues 112-593 from Ad6 hexon), on the virion (human adenovirus type 5 | human adenovirus type 6) (UniProt P04133). The experiment in a line: SPR; Biacore T200; about 300 to 5,000 RU of Ad virions immobilised on a CM5 chip, coagulation factors flowed over at four concentrations, 50 uL/min; 10 mM HEPES, 150 mM NaCl, 1 mM CaCl2, 0.5 mM MgCl2, 0.1% BSA, 0.05% polysorbate 20, pH 7.4; global fit to a 1:1 kinetic interaction model, double referencing.

The target of experiment [2] is chimeric hexon of Ad5:H1.1 (Ad5 vector, hexon residues 112-593 from Ad1 hexon), on the virion (human adenovirus type 5 | human adenovirus type 1) (UniProt P04133). The experiment is described as above.
The target in experiment [3] is chimeric hexon of Ad5:H1.2 (Ad5 vector, hexon residues 112-593 from Ad1 hexon, HVR7 IGVTRTY), on the virion (human adenovirus type 5 | human adenovirus type 1) (UniProt P04133). The experiment is described as above.
The target of experiment [4] is chimeric hexon of Ad5:H57.1 (Ad5 vector, hexon residues 112-593 from Ad57 hexon), on the virion (human adenovirus type 5 | human adenovirus type 57) (UniProt P04133). The experiment is described as above.
Experiment [5] deals with chimeric hexon of the Ad5 vector Ad5:H6.4 (Ad6 hexon section with HVR7 mutations, on virions) (human adenovirus 5 | human adenovirus 6) (UniProt P04133). Put plainly: SPR; Biacore T200; about 300 to 5,000 RU of Ad virions immobilised on a CM5 chip, coagulation factors flowed over at four concentrations, 50 uL/min; running buffer 10 mM HEPES, 150 mM NaCl, 1 mM CaCl2, 0.5 mM MgCl2, 0.1% BSA, 0.05% polysorbate 20, pH 7.4; regeneration with 3 mM EDTA; global fit to a 1:1 kinetic interaction model, double referencing.

Experiment [6] has as its target chimeric hexon of the Ad5 vector Ad5:H1.6 (Ad1 hexon section with HVR7 mutations, on virions) (human adenovirus 5 | human adenovirus 1) (UniProt P04133). Described as above.
Experiment [7] addresses chimeric hexon of the Ad5 vector Ad5:H6.3 (Ad6 hexon section with HVR7 mutations, on virions) (human adenovirus 5 | human adenovirus 6) (UniProt P04133). The experiment is described as above.
For experiment [8], the target named is chimeric hexon of the Ad5 vector Ad5:H6.2 (Ad6 hexon section with HVR7 mutations, on virions) (human adenovirus 5 | human adenovirus 6) (UniProt P04133). The experiment is described as above.
Experiment [9] concerns the target chimeric hexon of Ad5:H6.2 (Ad5 vector, hexon residues 112-593 from Ad6 hexon, HVR7 IGNTDTF), on the virion (human adenovirus type 5 | human adenovirus type 6) (UniProt P04133). The experiment in a line: SPR; Biacore T200; about 300 to 5,000 RU of Ad virions immobilised on a CM5 chip, coagulation factors flowed over at four concentrations, 50 uL/min; 10 mM HEPES, 150 mM NaCl, 1 mM CaCl2, 0.5 mM MgCl2, 0.1% BSA, 0.05% polysorbate 20, pH 7.4; global fit to a 1:1 kinetic interaction model, double referencing.

In experiment [10] the target is chimeric hexon of Ad5:H6.4 (Ad5 vector, hexon residues 112-593 from Ad6 hexon, HVR7 IGITDAF), on the virion (human adenovirus type 5 | human adenovirus type 6) (UniProt P04133). Described as above.

Experimental findings from PMC9536601 are described below.

For the substance “human coagulation factor X (from UniProt P00742 41-488) (natural protein)”, the Kd in experiment [1] was 43 nM; in experiment [2] it was 300 nM; in [3], 650 nM; in [4], 58 nM.
Take “mouse coagulation factor X (from UniProt O88947 41-481) (natural protein)”: the Kd in experiment [5] is 95 nM; in [6], 4200 nM; in experiment [7], 1200 nM; in [8], 681 nM; in [9], 681 nM; in [10], 95 nM. Moreover, the Kd in experiment [1] amounted to 0.31 nM; in experiment [2], 0.82 nM; in [3], 5 nM; in experiment [4], 0.65 nM. In addition, the koff in experiment [5] was determined as 0.0169 s⁻¹; in [6], 0.638 s⁻¹; in experiment [7], 0.26 s⁻¹; in experiment [8] it was 0.121 s⁻¹. In addition, the kon came out at 178000 M⁻¹ s⁻¹ in [5], 152000 M⁻¹ s⁻¹ in experiment [6], 214000 M⁻¹ s⁻¹ in experiment [7] and 178000 M⁻¹ s⁻¹ in experiment [8].
For “bovine coagulation factor X (from UniProt P00743 41-492) (natural protein)”, the Kd worked out at 97 nM in [1], 220 nM in experiment [2], 1100 nM in experiment [3] and 28 nM in experiment [4].
In the case of “mouse prothrombin (coagulation factor II) (from UniProt P19221 44-618) (natural protein)”, the Kd was 32000 nM in [5]; 1600 nM in experiment [7]; 560 nM in experiment [8]; 560 nM in experiment [9]; 32000 nM in experiment [10]; 8.6 nM in experiment [1]. In addition, the Kd in experiment [2] turned out to be 16 nM; in [3] it was 1300 nM; in [4] it was 10 nM. Besides, the koff turned out to be 0.563 s⁻¹ in [5], 1.41 s⁻¹ in [6], 0.0304 s⁻¹ in experiment [7] and 0.012 s⁻¹ in experiment [8]. Further, the kon in [5] is 17800 M⁻¹ s⁻¹; in experiment [7], 19700 M⁻¹ s⁻¹; in [8], 21300 M⁻¹ s⁻¹.
